Paper PMC4216079, “Phenotypic and Enzymatic Comparative Analysis of the KPC Variants, KPC-2 and Its Recently Discovered Variant KPC-15” (PLoS ONE, 2014)

Assays:
KPC-2 = KPC-2 (Klebsiella pneumoniae, UniProt Q9F663); assay: steady-state hydrolysis, diode array spectrophotometer; settings: 10 mM PBS, pH 7.4, 25°C; 10 nM enzyme
[1] = system: CC(C)(O/N=C(\C(=O)N[C@@H]1C(=O)N2C(C(=O)[O-])=C(C[n+]3ccccc3)CS[C@H]12)c1csc(N)n1)C(=O)O; assay: purified protein; settings: 10 mM PBS, pH 7.4, 25°C, 10 nM enzyme
[2] = system: CO/N=C(\C(=O)N[C@@H]1C(=O)N2C(C(=O)O)=C(COC(C)=O)CS[C@H]12)c1csc(N)n1; assay: purified protein; settings: 10 mM PBS, pH 7.4, 25°C, 10 nM enzyme
[3] = system: C[C@@H](O)[C@H]1C(=O)N2C(C(=O)O)=C(SCCN=CN)C[C@H]12; assay: purified protein; settings: 10 mM PBS, pH 7.4, 25°C, 10 nM enzyme
[4] = system: C[C@@H](O)[C@H]1C(=O)N2C(C(=O)O)=C(S[C@@H]3CN[C@H](C(=O)N(C)C)C3)[C@H](C)[C@H]12; assay: purified protein; settings: 10 mM PBS, pH 7.4, 25°C, 10 nM enzyme
[5] = system: Cc1nnc(SCC2=C(C(=O)O)N3C(=O)[C@@H](NC(=O)Cn4cnnn4)[C@H]3SC2)s1; assay: purified protein; settings: 10 mM PBS, pH 7.4, 25°C, 10 nM enzyme

Molecule | Km (KPC-2) [µM] | Km [1] [µM] | kcat [1] [s⁻¹] | kcat/Km [1] [M⁻¹ s⁻¹] | Km [2] [µM] | kcat [2] [s⁻¹] | Km [3] [µM] | kcat [3] [s⁻¹] | kcat/Km [3] [M⁻¹ s⁻¹] | Km [4] [µM] | kcat [4] [s⁻¹] | kcat/Km [4] [M⁻¹ s⁻¹] | Km [5] [µM] | kcat [5] [s⁻¹] | kcat/Km [5] [M⁻¹ s⁻¹]
O=C(Cc1cccs1)N[C@@H]1C(=O)N2C(C(=O)O)=C(/C=C/c3ccc([N+](=O)[O-])cc3[N+](=O)[O-])CS[C@H]12 [nitrocefin] | 6.5 ± 2.4 | – | – | – | – | – | – | – | – | – | – | – | – | – | –
KPC-2 (Klebsiella pneumoniae) | – | 217 ± 6 | 0.59 ± 0.83 | 2700 ± 560 | 124 ± 6 | 52 ± 6 | 21 ± 2 | 20 ± 1 | 950000 ± 650000 | 16.2 ± 3.1 | 4.1 ± 0.99 | 250000 ± 61000 | 16 ± 1 | 44 ± 2 | 2.8e+06 ± 1e+06
